In article PMC6661505 one finds binding result and Kd data, which are given here for one molecule.

Targets include mouse FGFR2c-Fc (mouse, UniProt P21803 22-377); human FGFR1c-His (human, UniProt P11362 22-376); human FGFR2c-His (human, UniProt P21802 22-377); mouse FGFR1c-Fc (mouse, UniProt P16092 22-376); human FGFR3b-Fc (human, UniProt P22607-2 23-377); human FGFR3c-Fc (human, UniProt P22607 23-375); mouse FGFR3b-Fc (mouse, UniProt Q61851-2 21-371); mouse FGFR3c-Fc (mouse, UniProt Q61851 21-369).

Holding throughout (test): bead flow cytometry
(A flow cytometer gives signals particle by particle.)

Chain of mouse FGFR2c-Fc (P21803 22-377): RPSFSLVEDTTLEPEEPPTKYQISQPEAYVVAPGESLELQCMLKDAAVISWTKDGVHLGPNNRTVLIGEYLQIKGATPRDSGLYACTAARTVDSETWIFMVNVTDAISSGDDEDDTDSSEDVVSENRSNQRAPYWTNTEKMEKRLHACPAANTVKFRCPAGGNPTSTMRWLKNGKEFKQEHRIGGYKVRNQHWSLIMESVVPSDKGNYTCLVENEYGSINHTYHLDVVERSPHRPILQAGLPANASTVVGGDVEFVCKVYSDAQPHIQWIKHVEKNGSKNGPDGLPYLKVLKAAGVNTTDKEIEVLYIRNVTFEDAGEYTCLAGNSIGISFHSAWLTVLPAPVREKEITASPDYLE
Chain of human FGFR2c-His (P21802 22-377): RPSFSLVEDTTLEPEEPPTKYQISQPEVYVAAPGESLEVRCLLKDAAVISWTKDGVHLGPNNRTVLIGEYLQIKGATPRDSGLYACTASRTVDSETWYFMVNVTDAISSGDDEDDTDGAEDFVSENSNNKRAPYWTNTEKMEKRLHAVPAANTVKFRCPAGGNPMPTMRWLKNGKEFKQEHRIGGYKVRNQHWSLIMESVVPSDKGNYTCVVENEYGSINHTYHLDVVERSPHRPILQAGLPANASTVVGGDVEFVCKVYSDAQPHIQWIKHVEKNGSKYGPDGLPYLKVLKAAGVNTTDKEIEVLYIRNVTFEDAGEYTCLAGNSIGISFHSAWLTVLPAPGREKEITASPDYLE
Chain of mouse FGFR1c-Fc (P16092 22-376): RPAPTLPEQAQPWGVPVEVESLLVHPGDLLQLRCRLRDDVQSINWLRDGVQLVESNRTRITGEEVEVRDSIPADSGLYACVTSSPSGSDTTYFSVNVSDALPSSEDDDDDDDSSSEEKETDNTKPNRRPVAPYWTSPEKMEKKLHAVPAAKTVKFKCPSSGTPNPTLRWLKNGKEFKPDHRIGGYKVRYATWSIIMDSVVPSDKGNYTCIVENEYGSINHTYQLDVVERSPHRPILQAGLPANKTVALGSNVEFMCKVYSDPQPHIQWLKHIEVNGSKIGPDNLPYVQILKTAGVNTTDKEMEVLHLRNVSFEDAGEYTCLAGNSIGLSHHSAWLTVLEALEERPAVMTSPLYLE
Chain of human FGFR1c-His (P11362 22-376): as the sequence (P16092 22-376) above, with A3S, V15A, L22F, V53A, R68Q, I71V, R128M counted along it

As to GCCGAUGGUUUUGUGGCCGUUUGAGGUUCCUACGGC (structured_RNA, 2'-fluoro C and U; 3' inverted dT (not in string)) [iR3], the binding result in the data set with mouse FGFR2c-Fc, with human FGFR1c-His, with human FGFR2c-His and with mouse FGFR1c-Fc was “no binding” each time. Further, the dissociation constant (Kd) is about 48 nM with human FGFR3b-Fc, 55.5 ± 8.4 nM with human FGFR3c-Fc, about 62 nM with mouse FGFR3b-Fc and 36.6 ± 7.1 nM with mouse FGFR3c-Fc.

By Kd is commonly meant the free concentration of one partner at which half of the binding sites on the other are occupied at equilibrium, for simple one-to-one binding.
